Source: PMC5897774, “Mitotic spindle association of TACC3 requires Aurora‐A‐dependent stabilization of a cryptic α‐helix” (The EMBO Journal, 2018)
Where a chain is given by its changes, count along the chain named. Non-standard residues stand in square brackets, D forms with d. No end group written: not given here. pS = N[C@@H](COP(=O)(O)O)C(=O)O; FAM = fluorescein label

T1: Aurora‐A R151A (Homo sapiens, UniProt O14965, C290A/C393A/R151A)
T1 construct: pET30TEV Aurora‐A 122–403 C290A, C393A were produced in a similar manner; made in house
T1 sequence (O14965 122-403 R151A/C290A/C393A): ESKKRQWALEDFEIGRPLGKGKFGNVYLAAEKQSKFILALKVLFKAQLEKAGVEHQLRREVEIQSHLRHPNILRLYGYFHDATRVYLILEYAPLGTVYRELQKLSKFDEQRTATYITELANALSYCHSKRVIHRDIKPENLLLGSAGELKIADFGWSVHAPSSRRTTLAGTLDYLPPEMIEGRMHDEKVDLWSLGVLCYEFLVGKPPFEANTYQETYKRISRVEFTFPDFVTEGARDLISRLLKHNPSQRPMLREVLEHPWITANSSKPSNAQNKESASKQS

T2: TACC3 552-567 pS558 (Homo sapiens, also: FAM-labelled, place not given here)
T2 chain: SALRKQ[pS]LYLKFDPLL

T3: TACC3 546-573 pS558 (Homo sapiens, phospho-Ser558; FAM-labelled)
T3 chain: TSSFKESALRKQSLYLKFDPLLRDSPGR

T4: FAM‐phospho‐TACC3^CID F563A (human, UniProt Q9Y6A5 549-570, F563A, fluorescein (FAM) label; phosphoserine at 558)
T4 construct: TACC3, human, aa549–570 (TACC3^CID); source: FAM‐labelled peptide (FAM‐TACC3 peptides: PPR, Cambridge; Almac, Craigavon)
T4 peptide (looked up): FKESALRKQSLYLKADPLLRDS

T5: FAM‐phospho‐TACC3^CID L559A (human, UniProt Q9Y6A5 549-570, L559A, fluorescein (FAM) label; phosphoserine at 558)
T5 construct: TACC3, human, aa549–570 (TACC3^CID); source: FAM‐labelled peptide (FAM‐TACC3 peptides: PPR, Cambridge; Almac, Craigavon)
T5 peptide (looked up): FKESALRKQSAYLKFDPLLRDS

T6: FAM‐phospho‐TACC3^CID Y560A (human, UniProt Q9Y6A5 549-570, Y560A, fluorescein (FAM) label; phosphoserine at 558)
T6 construct: TACC3, human, aa549–570 (TACC3^CID); source: FAM‐labelled peptide (FAM‐TACC3 peptides: PPR, Cambridge; Almac, Craigavon)
T6 peptide (looked up): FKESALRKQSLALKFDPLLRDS

T7: CHC 1–574 L503A/Y504A (UniProt Q00610 1-574, L503A | Y504A)
T7 construct: source: expressed and purified as the WT protein (modified pGEX vector; GST cleaved with TEV)
T7 sequence (looked up): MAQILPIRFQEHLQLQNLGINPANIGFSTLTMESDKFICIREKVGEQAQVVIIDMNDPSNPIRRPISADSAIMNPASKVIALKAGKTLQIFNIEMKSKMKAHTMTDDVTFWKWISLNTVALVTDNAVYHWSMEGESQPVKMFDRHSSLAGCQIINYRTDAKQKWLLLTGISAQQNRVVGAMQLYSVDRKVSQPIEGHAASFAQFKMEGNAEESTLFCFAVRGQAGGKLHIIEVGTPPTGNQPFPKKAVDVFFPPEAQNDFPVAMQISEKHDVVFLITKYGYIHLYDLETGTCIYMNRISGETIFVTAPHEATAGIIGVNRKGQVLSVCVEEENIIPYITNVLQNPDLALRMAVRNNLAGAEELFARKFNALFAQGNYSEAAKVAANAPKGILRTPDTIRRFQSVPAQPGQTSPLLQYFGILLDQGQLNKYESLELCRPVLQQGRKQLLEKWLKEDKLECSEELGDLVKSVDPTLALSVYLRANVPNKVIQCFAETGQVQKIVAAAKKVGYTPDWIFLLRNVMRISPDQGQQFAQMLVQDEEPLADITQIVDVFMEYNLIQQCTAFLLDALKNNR

T8: CHC 1–574 R481E (UniProt Q00610 1-574, R481E)
T8 construct: source: expressed and purified as the WT protein (modified pGEX vector; GST cleaved with TEV)
T8 sequence (looked up): T7 sequence (looked up) with R481E, A503L, A504Y

T9: CHC 1–574 L480D (UniProt Q00610 1-574, L480D)
T9 construct: source: expressed and purified as the WT protein (modified pGEX vector; GST cleaved with TEV)
T9 sequence (looked up): T7 sequence (looked up) with L480D, A503L, A504Y

T10: CHC 1–574 L476D, L480D (UniProt Q00610 1-574, L476D | L480D)
T10 construct: source: expressed and purified as the WT protein (modified pGEX vector; GST cleaved with TEV)
T10 sequence (looked up): T7 sequence (looked up) with L476D, L480D, A503L, A504Y

B1: CHC 1–574 (clathrin heavy chain propeller‐ankle fragment) (domain or fragment, UniProt Q00610 1-574, looked up)
chain: T7 sequence (looked up) with A503L, A504Y
notes: source: modified pGEX vector
B2: FAM‐TACC3 549–570 phosphorylated on S558 (FAM‐phospho‐TACC3^CID) (peptide, UniProt Q9Y6A5 549-570, looked up)
peptide: {FAM}-FKESALRKQ[pS]LYLKFDPLLRDS
notes: TACC3, human, aa549–570 (TACC3^CID); also called pTACC3^CID; FAM‐labelled pTACC3^CID; source: FAM‐labelled peptide (FAM‐TACC3 peptides: PPR, Cambridge; Almac, Craigavon)

What was measured:
Aurora‐A R151A = biological target: T1, Aurora‐A R151A; assay: FP binding assay, Aurora‐A R151A; conditions: fluorescence polarization, Aurora‐A R151A relative to WT Aurora‐A
Method: The contributions of the site 1 residues to the interaction were quantified using fluorescence polarization spectroscopy (FP) with a set of fluorescein (FAM)‐labelled peptides.
Binding assays were performed in triplicate. FP signal was fit to a one‐site total binding model in Prism 6 (GraphPad). Results are reported as K d ± SE.

TACC3 552-567 pS558 = biological target: T2, TACC3 552-567 pS558; assay: FP
TACC3 546-573 pS558 = biological target: T3, TACC3 546-573 pS558; assay: FP
[1] = biological target: B2; assay: fluorescence polarisation; CHC proteins serially diluted in 20 mM HEPES–NaOH pH 7.5, 200 mM NaCl, 5 mM DTT; 50 nM FAM‐labelled TACC3 peptide; 30 min at room temperature; read at 25°C; conditions: both partners purified
[2] = biological target: T4, FAM‐phospho‐TACC3^CID F563A; assay: as above; conditions: both partners purified
[3] = biological target: T5, FAM‐phospho‐TACC3^CID L559A; assay: as above; conditions: both partners purified
[4] = biological target: T6, FAM‐phospho‐TACC3^CID Y560A; assay: as above; conditions: both partners purified
[5] = biological target: The R555A mutation alone or in combination with K556A (FAM‐phospho‐TACC3^CID peptides); assay: as above
CHC 1–574 L503A/Y504A = biological target: T7, CHC 1–574 L503A/Y504A; assay: as above; conditions: both partners purified
CHC 1–574 R481E = biological target: T8, CHC 1–574 R481E; assay: as above; conditions: both partners purified
CHC 1–574 L480D = biological target: T9, CHC 1–574 L480D; assay: as above; conditions: both partners purified
CHC 1–574 L476D, L480D = biological target: T10, CHC 1–574 L476D, L480D; assay: as above; conditions: both partners purified

CC(C)C[C@H](NC(=O)[C@@H](NC(=O)[C@H](CCC(=O)O)NC(=O)[C@H](C)NC(=O)[C@@H]1CCCN1C(=O)[C@H](CC(=O)O)NC(=O)[C@H](CCCNC(=N)N)NC(=O)[C@H](Cc1ccccc1)NC(=O)[C@H](CO)NC(=O)[C@H](CCC(=O)O)NC(=O)[C@H](CCC(=O)O)NC(=O)c1ccc2c(c1)C(=O)OC21c2ccc(O)cc2Oc2cc(O)ccc21)C(C)C)C(=O)NCC(=O)N[C@H](C(=O)NCC(=O)N[C@@H](C)C(=O)O)[C@@H](C)O [FAM‐TACC3 522–536]
reduced affinity (Aurora‐A R151A): 40 fold

B1
Kd (TACC3 552-567 pS558): 48 µM
Kd (TACC3 546-573 pS558): 39 µM
fold increase in affinity against non‐phosphorylated TACC3^CID [1]: 4 fold
fold reduction in affinity against WT [2]: ≥ 4 fold
fold reduction in affinity against WT [3]: ≥ 4 fold
fold reduction in affinity against WT [4]: ≥ 4 fold
fold reduction in affinity against WT [5]: 4 to 5 fold

B2
Kd (CHC 1–574 L503A/Y504A): > 300 µM
Kd (CHC 1–574 R481E): > 300 µM
Kd (CHC 1–574 L480D): > 300 µM
Kd (CHC 1–574 L476D, L480D): > 300 µM
